Measured values reported in the DeepSol protein solubility set.

Assay: soluble on expression in E. coli; label from the status in PepcDB or PDB records

| Sequence | soluble on expression in E. coli |
| --- | --- |
| MGSDKIHHHHHHMKDEILIRYINKHCTATEEKEILEWLKEKDNRQRLFELEQIWGLKAEMRFSDKGRMDEAYRQLSRQLGLSGQIEKREKPIQRFTVREWWKYAAVLVAVCLFATNLFYITKEEPEAYNTVVVPKGQRVSLLLSDGTTVWLNAESRFSYPAKFSEKYRTVTLEGEGYFEVAHNPKCPFTVKLPMLNIRVLGTKFNAKAYLDEPSWITLKEGSVEVSTLDDRSKERMSPNDQVYYTVSDGLVLIRNSAQANVDSWTTGDLRFDNKTLKEMAKVIERRYDVKIRIMDSSLVEEYFTCHFRKDLTIAQAMELLKETRRVDYRIEKKTVYLYKK | not soluble |
| MGSDKIHHHHHHMKIILGIPDLKIPVWTFKQPLMINQLNWDRPSWENETWVDSGGYQIMVRGIKVEIEKVVEKYKILDATQYMSLDIPSIPCHKPSELNYKYFEYLYTVFDKKIVPVIHAYDPESIKKSIDFYSQYTDLVAFGGIVPPTLNKSGNKKLAVAIYYLVRKLWKGKIHVLGAGSPFMRKVYFNADSVDTSTYRVKGIHGMVIIPGKGERYVGNRKIVWGTKRASEEELEILLSFLDKTHYPFQIRFDNWIDRSLINAWVLLNSEYESNNPLIRYSKKLDTFAEDEIEEEVNELCM | not soluble |
| MGSDKIHHHHHHMKKYFPSSELIINEDGSVFHLHVKPEWLADKVILVGDPGRVALVASHFENKECEVESREFKTITGTYKGKRITVVSTGIGCDNIDIVMNELDALANINFETREEKEKFRQLELVRIGTCGGLQPNTPVGTFVCSQKSIGFDGLLNFYAGRNAVCDLPFERAFLNHMGWSGNMCAPAPYVIDASEELIDRIAKEDMVRGVTIAAGGFFGPQGRELRIPLADPKQNDKIEAFEYKGFKITNFEMESSALAGLSRLMGHKAMTVCMVIANRLIKEANTGYKNTIDTLIKTVLDRI | not soluble |
| MLVSEMHGEVEAVKVGTEVQGRVLHWVYLYYYRNLLFDAGCPNTAQEVFEHFKGREIKAVLITHYHEDHIGAVNLFKEITDVYVPEESLEILRNPPDIPKYRKIGWGQPEKIEGVKVAKEVMKFDDVEVRMIKTPGHSFDHVSYLVDDKLFCGDLVINTAQMVCMREENLLKTIESIEKVLKYDFNYAYTGVGVASRDEVVEYLNYLKGLKEKAEMLYAEGKTIDEIVAACFPNPSQKAILMEFVSEKEWARENMVKSLLGLPRE | not soluble |
| MSLKLIASDMDGTLLDAKMSITNDNASAIREAERLGIEFMVATGRAYTEAKPALEEAGIDCAMITLNGAQVFDKDGHSLFTAGIEKETVTEVLTILSQHNVYYEISTNKGIFSEHQEKRIENFAAHIAESMPHLTYKVAIAMASAHLSLLHITYVDRLDDILKDDSIEVLKIIGFSMDGPKVLGPAGMEVEELDDLVVTSSALNNIEINHRLAQKGIAVARVAKERGIPAEQVMTIGDNLNDVSMIQWAGVSFAMGNAELELKEYAKYETATNLENGVGEAILRAIREDEGHHHHHH | soluble |
| MIDIHNHILVDIDDGPKTIEKSIALLKQAKDEGVTSIVATPHHLHPRYDNTFQQVLVKLAELRTHPEVQALDIKLFPGQEIRITDSILKGLDNGSIQGINRSKYLLIEFPTGEVPHYTKQLFFEIQSRGYIPIIAHPERNRSIAKNPEILYELVANGALSQLTSSSLVGGFGKNIQKLSLQFIECNLAHFVASDAHSCDQRPFLMQELFHNHKLKKYSNDIEALLRNASSVINDNFVYLDRPTKPGKVKSFLKWF | not soluble |
| MNKHERLDEIAKLVNKKGTIRTNEIVEGLNVSDMTVRRDLIELENKGILTKIHGGARSNSTFQYKEISHKEKHTRQIAEKRYIARKAASLIEDGDTLFFGPGTTVELLAEEVNHHTLTIITNCLPVYKILLEKQTAHFRVYLIGGEMRHITEAFVGEMANAMLEKLRFSKMFFSSNAVNKGAVMTSTLDEAYTQQLALSNSIEKYLLIDHTKVGKEDFTSFCQLNELTAVVMDYEDEEKVETIKTYIEVVDLEHHHHHH | soluble |
| MIKMIDQYQAFTQSPIGKFVVKNLGLPSPVVLDRFESGQPVIKGAVLMGAAPSSSLTSGIAQVLSNIHADSYAGNNAEIQQAAAQVGLNLRAFNSGDKESKFKAVVFDASGIQNSEQLDELYKFFNPIVRQIESSGRVIVLGTSPESAKTVKQAIAQRALEGFIKSVGKEFKKGITAQVVYVDEGAVNNIESTLRFLLSPRSAYVSGQVIRVSKAEVVQVDWDKPLAGKTALVTGASRGIGEAIAHVLARDGAHVICLDVPQQQVDLDRVASEIGGSALGLDITAADAGEKIKAAAAKQGGLDIIVHNAGITRDKTLANMKSELWDLVININLSAAERINDYLLANDGLNTNGRIVCVSSISGIAGNLGQTNYAVSKAGVIGLVKFTAPILKNGITINAVAPGFIETQMTAAIPFAIREAGRRMNSMNQGGLPVDVAETISWFAATGSTGINGNVVRVCGQSLLGALEHHHHHH | soluble |
| MSLLYTTPRLNISAFLFMKQQLSFLFLLSGLLAGCSSTPNPNLEQINQFTGGKTIGDATSFYWYTESFQKPSSASDYVTSGDYGSYQTSYRWEEGQVREIRREGEHLDGKKLVPFRVHIRFSKEGEAVYQQYRLGGKVLPMNEEQLAHYVLQAKAVAEATKEQDKQGLELIQGYWNGKTFETCQGVEYQRVEFNQSLPSFVFNRLASIESYVAFLGKIRNGKVHIDELLLLDDAGHDCVKEPELLDEGHHHHHH | soluble |
| MFKRLLMVALLVVAPLANAADQTNPYRLMNEAAEKTFNRLKSEQPKIKQSPDYLRTVVREELLPYVQVRYAGALVLGRYYKDSTPAQRDAYFKAFEAYLEQAYGQALAMYNGQNYQIAPEQPLGNADIVSIRVTIVDNGGRPPVRLDFQWRKNSKTGNWQAYDMIAEGVSMITTKQNEWASILRQKGVDGLTQQLESSAKQTITLDQKKLEHHHHHH | soluble |
| MMKEVLDAFRKSGEAEGFGHNKMSSSEVASHYNKVLQVGIEGRKESRIFFMRNMNNWVKSQLINDAKQRVNDNGVNNPRVLDLACGKGGDLKKWDIAGAKDVVMADVADVSIQQAEERYKQMFGYKKNNIFTVQFIVADCTKENLEDRIENKDPFDLVSCQFALHYSFVDEASARIFLKNAVGMLKPGGVFIGTLPDADRIVWSMRNGENGQFANEVCKITYENVEELAEGKVPLFGAKFHFSLDEQVNCPEFLAYFPLVKHLLEELDMELLFVHNFAEAINKWLEPGRRLLESMTGLETYPNEKLSGKSDDEYLEAKAKLDAFPEDERIKTMGTLSKSEWEAICMYLVFGFRKKKSEAEKTEEEPATTKPVAESESEQKEVTESEEKEDQEDCEHQEAQTN | soluble |
| MGSDKIHHHHHHMKILFISSLYAPDIGGGAEIILQRTVEGLQQRGYSIAVLATTDRPGLQLAEVNRVKVYRAGLLNQYWHFMPQRPERLARFAWHWRDRYNGGMRDYVRQVIELEQPELVVCHNLTGWSVSAWDEITRANRPVVQVLHDLYLLCPSSTMFKKGQSCQRQCSLCTQFRKHHAQQSEQVSTVVGVSRFMLDTLQAQGYFKGARGYVVHNASPFTPPHAGQTKAADDTAPLRFGYLGTLSENKGVGWLINQFQHLPFKATLQIAGRGQSNDEKRFRAMATSPDISFVGFQKPEDFYQHIDVAIVPSMWNEPFGLVAVEACAHSRPVIASRMGGLPEIIQDQLNGLLCSPDDPDSLGLAMLKLHQQPELLARLGSQARNSVASLLNLDLMLDQYESIFAQTLQDRSTWHGERVQLDPG | not soluble |
| MDQKEAPSFTEASVHDPSVIKVEDTFYVFGSHLAAAKTEDLRNWTQIATHVHEGNPLIPNVFVELAEAFEWANSNTLWAADVIQLEDGRFYMYYNACQGDAPRSALGVAVADDIEGPYENLGVFLKSGMWGEESPDGTIYDANVHPNAIDPHVFFDEEGKLWMVYGSYSGGIFILEMDPDTGFPLPGQGYGTHLMGGNHSRIEAPYIHYDKETEYYYLYVTFGGLDSTGGYNMRVARSKQPDGPYVDGEGHLMSEVRGAPGTLFDDASIEPYGVKQMGNFLFKRELGERGTGYVSPGHNSVYYDDEVDKIFLFFHTRFPERGEAHEIRVHQMFMNRKGWPVIAPYRYTGESLEKVKAKEVIGDYQWINHGKEISAEIKESVTVRLEKNHKVLGDVTGKWKKVGDYHVELQIDGETYYGVFLRQWDPVAEREVMTFTALSEEGIAIWGSQLEEKTDNEIVDAVYDDLTLEGTIISDVELPTRGMRQTTIAWSSSHEEVLSSSGKVNRPEIGEDDVVVSLTATISKGSAERIKTFELVVPGQTEGGLVAHYPLNGTLENAVDDARFGSGTVTGNRIDNPGGTIAFEQGIDGEAAVFDGTTGIRLPNGLISRNTYTVSFWLNPEQLTEFTTAFFAARSEHHWLSFVPRGHSGMNHDTMLWAGSAQWYDAGTGVKLPVGEWSHVAFSVDNGEIVIYLNGEERFRGENFPNLFTTPNAYFALGVNHWDAPFQGMIDELRIYDGVALTREEIVHLAKQKLEHHHHHH | soluble |
| MGSDKIHHHHHHAQETLRENNGEPTLVERLSNGEIKINSAEMNFQLFTSANAEFVGNELDGMNFKLNRVRLEIKGDVGKWLGYHYRQSFNKYSDPYSLDNLSSSLELAYVNLKARPNLNFTIGKQFVNFGGYEYYVNSIRVREFSEFNNLLTAYQAGISGNWQVSPDHELCFQIVNNRNGNDEDIYPTGLPEGTAKAKIPFMYTVNWNSYYLDKSLQLRYATAVGQQTRKRYSYYFTCGNTYEKGPLLTYLDVMYTRQGIDQHGVVSRLPGTPHTAMNTEYLSIIGDVDYRVHPQWNVYVKGAYETARVYKGNGDFRKGMYRRSWNAQSSVEFFPFKQLDLFVFVLYTYRGVILEKAATRMGAIEPDTHRISLGLVYSIPVF | not soluble |
| MSHDSSGEYMVSQVLKCVKFKDLVRKALNAEAKFSPASVEYDKRRHSKYAYLVHWRGYDWKERTWEPEENLENCEELQKFKERNNMSLDHLTFEHHYEHSTWRRISLASEKCVTNRYLKTDDEIEEKRARKKAKLEEQNRKEQAKNPHASAETEPAVKKKKIEGVGSRIPKISDREGAGTSGQSSSNVSTPGITPLDNKTPRMQKKSNEIGQASTPECAIATLSIGTPQPSIIDSTYDQSDIANGSTSPQPQPVFKRKMNGQDVSDYSVHQGGTFSDGSAIEGSTSRESEDMDCTQETKKALQKAIESAREECEEIEKTIKKYPLQVTSSRVVTGFSPALTLRKFRRCQSLEMLSDHFNNNAEMEIFGKNFENSVRLDADAKPVVIKIYPQEQELFLTKQRKMPSLEMEQLVYENLVKENANNIKIAMHNIRPDKNFAQLLECLSHAYSKDDNIRFETIFNEGFPPSDEYDCRRFQAIVFLIAYCKHRLWKADPKGMAIVEASDAVKEGEIREQQIICSDRHRKCAWLQVFLKLMPDRFKFLETSGQCYHGWEGDDGPFRDDVFFHCMKYGAECQKRLFLDFNKPIGIQEETVGDYSVDAMHLLAVQYGNIQRIPSYLSIGGLDINALATHLPTKRVMRLQHYLKVWIEAHKSETTATEDRKKYYRYLNDVIRLTSESLEIFLENEVTKMIFSRMGGRWKIRMDLTYPHILRCSPLSNKSNGGDGTHQVLSCLFYPEAIGYRDGLENSKGADTEKIDELKTSQKRYKKMIEEGKGRLVLALYRIDIEFRCNLAEKEQFSLPKFTLIESDDGFKIEKLTLLRQTEGLTCYEADIGMFEMTPFSSPGCRYFGISDKAHEKDLVVPGNAHIEMRAEVDQPISFVTQLFFIKKNV | not soluble |
